assay: soluble on expression in E. coli; label from the status in PepcDB or PDB records

Sequence	soluble on expression in E. coli
MGSDKIHHHHHHMLLYIHGFNSSPFSDKAVITAKYMAQHHPSVIFHQPQLPNTPKAAMALLTTYVEAAIDAKEPLAYIGSSLGGYFASYLAETYGGKAVLVNPAVKPFELFDEFMGPQFNPYTEQHYLVVPEHKREVAEFNTAVIRNPDRFLVLLQTGDEVLDYREAVNKYHHCQLRIEAGGDHSFVGYESHLQTVSQFLHLP	not soluble
MGSDKIHHHHHHMLMTPDEDRITQLYEAFNRRAFDRCIAMLAPDVSWPDELEDRRLEGLDAVRAYLDHAIAPLRVCYQPIALFTPSPGQIEVLARQTVLSATDGSLWSSLRVRHRYTIKDGLFTHLESEQNYTAPTFEGVDRLLRRLYDAINAGDVDGAAACFGDHACFEDKLEDGPISGPAAIRAHFEHLFATLQVTATMCDYALEPDDRVRVRLQVEARGATGRLWHDGGVTAWYRLEGGLIVGQDVDDSGEEAP	not soluble
MGSDKIHHHHHHMLNDANLQAADMPDTEFTLTRNGFGRLVLTLGDGTAHEGVVPVRAFPIGAPDDGIGMMSTDGHELAWIPRLDRLPAPQRAMVEEELAAREFMPEIQRIVGVSTFATPSEWTVQTDRGQTTLVLRGEEDIRRLAGTTLLISDSHGIHYLIRDLMALDRASRKILDRFL	not soluble
MGSDKIHHHHHHMLNQQWLTTFIKLVELGHFTHTAEQLFMTQSGVSQQIKKLEQQAGAPLLNRIGKGFELTQAGMALLAHAQALVQQQAELLASFHQDNAYSGECKLACSGSLAMLIYPKLIDRQLQYPELKMSLEAAPNQRIIDRVLDNSIDVGIITQEFAHPELSLRLLGSQRLCLVLPNVWEGRLPRLIEYNFLTELGMIDHPDGMHYWQHFVECHFPQHLPQASKIKRLSYVNQLSQILLPVAKGLGFAVLPEFAIKQVSARDGVLEGLFRVPDASLSAHVASESLYLIQKRHRPLALRYQEIITLIKGLIS	not soluble
MGSDKIHHHHHHMLNTIGERQKQLLKLLRGSRPGLSVDELSKGLEITRNAVRQHLSSLEGAGLVTAGNTRPSGGGRPQQLYVLTELGKESFPRQYSWLAQLVLASVRREEGVENMGKRLSEIGAGIAEQIRGQYPDLNTKEEKIDKLTEVMDQLGYNAKSATLPNGEKVIEADNCVFHQMAAKDMEICHLDRGLMETFTDSKVEQHECMARGGELCRFRFVSKKE	not soluble
MGSDKIHHHHHHMLRFVMNDDQQSCLVSRLSRFVALTEAECAFIAEMEKDEHERRKGRPVVQVGDPTEGIMVLKSGWAVVKADSSDGRSQILRVYLPGEVMGLAEIGSSHANHRIIMQTDGKICPFPRAGLAPLYSDYPRLGALLTAVGSLDQIALRHHASSLGAMDATGRLKFWLLQLRSRLEVANVGLGNRFRVPFSQVEIGQAVGLTSIYVNKLLRRFMDDGDLEIERPYFRLLNREQWERDCEYVNPFVDMDTSWFPPAYPEIHDSAP	not soluble
MGSDKIHHHHHHMLSDKQKKHILVNRDGLKYYTVEGLEKVHEEMLRLLLIIDTIAKENNIPYWIDGGSLIGIVRHKGFIPWDDDLDISLLKKDYLRLIKEISMYCEMHNDVALFYNEPLVEHTCNFFASKKVFSRTQGSCVLVPVKIDIRPVNCIVKNKDNVIENNIYRDTANYIIFGKSYGYMKKTLSHKNEQMDFLEYYNYKYGLVDSGLENVIMVHPYFEFSNTFELTYNDLFPLKMLQFENMLLPVPNNYDYLLKELYGDYMSYPNICHRAPVACQIYQRQLKDNRFNLCLSMFKHTNRGLLYRMRIILVQIRLLGVFEYMKIKIYE	not soluble
MGSDKIHHHHHHMLTASVNEAEPCAEPQRPVIRLHPVTADDAPKLPATRCSTCAIRNVCMPAGLTPIEFARLDAMVCTTRHVKRGDALFRTHDTFQSIYAVRTGSFKTVVMHRDGREQVTGFQIVGETLGLDGVCGGRHNSDAIALEDSTVCIIPFAQLEAVCREVKPMQHHVHQLMSGEIVRESSLMMLLGTMTAEQRVAAFLLNISERFQKRGYSASEFNLRMTREEIGCYLGMKLETVSRMLSKFQRDRLIAPRGKQIRITDPQGLARV	not soluble
MGSDKIHHHHHHMLVRQEALSSKMSIKDLPSSSPLPNANLVLVFGSVRRFSDGKLPTQLKERYPAAQIVGCTTSGEIGPHGVSDDSLQITAIAWDNTMQRVTYARANNMQTSAETAINLAKQLKSDSLRTILVFSDGLHINGSELLQGFQSVLGDIPIVGGMAGDNAEFSRTLQLLNDSIEEGLVVAIGLYGDKLITASGALGGWKPYGPPRKITRSEKNVVYEMDGKPALPLYRMYIGEQNAKALPGSGLRFPFAVIEEGKREVEKVRTLLAIDPEENSLTFAGNVEEGETVRLCQTTHDRLVEGAGGAARLVTANLDTSQPGLALCVSCVGRKLVMAEQIADEIQAVQQTLGSQTALTGFYSYGEFCPRPNTTDNVLHNQTMTIGYLSEAL	not soluble
MGSDKIHHHHHHMLVYPSGIDLSTSTLRYLSDLLRARRRERGTRWRRLTTDRQALLALAHLRCGHTYAQLAAGFGIGLATVYRYIVEAVEVLAALAPTLQQAMTFAANKAFVILDGTLLHIDRIAADRPYYSGKHKRHGMNVQVIADAFGRLLWASPALPGAVHDIKAARIHGIIEALTQAGIRTWADKGYQGAQGTIRVPYRGRWSTLPAGKRAVNSSHAKIRAVGEQANATLKSWRLLRKLRCSTTRITDIVKAVLALHLATAA	not soluble
MGSDKIHHHHHHMLYQLHEMQRAFLRPLAAFTDASSQLFTHPYSPLAYMPMSRQLAAGCELVHRIGKEYQKPAWNLPATEIQGKRVAVIEAVVLDKPFCRLVHFQRDVRRTAGRADPRVLLVAPLSGHHATLLRDTVRALLPAHDVYVTDWVDARMVPQDAGPFHLDDYVRYIQAFLRHLGPDTHVISVCQPTVPVLAAISLMASANDPCQPRSMVMMGGPIDPRESPTQVNRLATTKPYAWFESQLIHAVPAPYPGAGRRVYPGFLQHAGFMAMNPDRHLKSHYDFYLDLLRGDDGDAEAHRRFYDEYNAVLDMPAEFYLDTIRTVFQEWLPGGTWEIDGQLVRPADIRKTSLLTVEGELDDISGQGQTRAAIKLCSGIPAARKSHYTAVGCGHYGIFSGRRWRELICPKIAAFIRQS	not soluble
MGSDKIHHHHHHMMADERIEVLKDILLELHHGASAESVQERFNQHFKGVSAIEISMMEHELMNADTGITFEDVMGLCNVHANLFKGAIADVDVPDAEQEGHPVKVFKDENLALRAAIMRIRRIIENYTKPENEDFRQEILKGLKHQFDLLGQFYHHYTRKEKLFFPIMERYGHDSPPKVMWGVDDDIRDLFKDAKATLAKLPDGSIEELSQKFEAFAKEFEEMIFKEEAILLMILLESFTQDDWLQIASESDAYGYAILKPTEKWIPHRESFDNEADADTSDNQLADALNQVQDANSPEGTNTKVINTPEGQFTITFKPKEKEAAADRTTQQPFGNGYLSVEQANLILNHLPLEITFVNKDDIFQYYNDSVPAAEMVFKRTPSQVGRNVELCHPPKVLDKVKKVFELLRNGQRDKVNMWFQSERLGKFVYVTYAAVRDQAGDFQGVLEYVQDIKPFFELDSEFNRDI	not soluble
MGSDKIHHHHHHMMAFITVKPEIKNNLANVAKELKIDEELLKSANRSAQKHQLYCPGYVIEEHSGKELQTIQDIKRFLQPRQLKLSDSWIEQEKIYDDSAVEKEIKKIIDVFPFVSCREIGRSVLGRPIWELKAGGEHAVKKVHMNASFHANEWITTSVLLKWFKEYCMSLCCNSPFFGFSPIKLFNSTSLSLVPLVNPDGVDLVLNGSEVMGARRDELERLNEHRPNFNEWKANINGVDLNKQFPSLWEIEKYRKPTAPSYRDFPGISPLTEPESIAMYRLITENPPDRLLALHTQGEEIYWGYKGLEPEESAAVIKEFEELSGNIYKGVRDIDSYAGFRDWFIHHYFKEGYTVELGKGQNPLPFQQFSHIYNATSGILWRALFFHE	not soluble
MGSDKIHHHHHHMMAKLVVCIIDGMADPPPPAGGVTPLAAAHTPHCDTLARHSVAGLCHVIQPEAVPGSEAGLSALLCCEAAASIARGPVEALAQGDPVAPHETVWRLNLVSLGPRGNYYNPAPLLDAATETAARKMLDRALGTQGYSLLGGKGFRHLCAGTEPPVLRDGPQDVCGMTPDTGQADLNSYCPRLARAMTEANVLFRRSRMDLAVWPWGAGTMPDLPGFAETTGQTGALAGGVPLARGLALALGMTAPSIAGATGGIDTDLGAKTRAAIALAAGHDVVYLHVEAPDLHAHALDRVAKRRAIERIDAEVVGPLHMALPDATLLITCDHATDCATGRHMAIPVPFILHKPDGPQDGIATFSEAASARTGIRIDSAATLVRLALAD	not soluble
MGSDKIHHHHHHMMDARRNGLVLLALLLLTQTTISAQTDSMGKDVPIDSVSVATSDSLQTKRGFFKKFLDYFNDANKEKKNKKFDFSVIGGPHYSSDTKFGLGLVAAGLYRTDRNDSILPPSNVSLYGDVSTVGFYLLGVRGNHLFPQEKYRLNYNLYFYSFPSLYWGRGYDNGANSDNESDYKRFQAQVKVDFMFRVAKSFYIGPMAVFDYIDGRDFEKPELWEGMSARTTNTSLGLSLLYDSRDFLTNAYQGYYLRIDQRFSPAFLGNKYAFSSTELTTSYYHPVWKGGVLAGQFHTLLNYGNPPWGLMATLGSSYSMRGYYEGRYRDKCAMDAQIELRQHIWKRNGVAVWAGAGTVFPRFSDFTPKHILPNYGFGYRWEFKKRVNVRLDLGFGKHQTGFIFNINEAF	not soluble
MGSDKIHHHHHHMMGEFEAIRPYSDAEVPAVLQRLLSDDAFLGALVRYRFPRLAGPLGWLLKPLIAHRLAREVTGIRSVATLQDKFEPYVDHTIEKATDGVTYSGVNRLKPGCAYLFIANHRDIVMDPAFVNYAVYHAGLPTPRIAIGDNLLQKSFVSDLMRLNKSFIVHRSLSGRREKLAAYQTLSAYINHSIREDRQSVWIAQAEGRAKDGDDRTDSAILKMFHMSRKDEPFAEMVRALHFIPVSISYEYDPCDLAKARELHTRASTGEYRKAPGEDDASIALGITGYKGRVHINFGAELEGEFSDAKQLAAELDRQILGNYRLFPVHYLAYEMSENRDPGLAVPTAESLFGSEELEKARKEWNRRLEQCPAEQRSWLVLQYANPVLNQYRIKQQS	not soluble
MGSDKIHHHHHHMMGYNLTTPFLIYQWNFPMFPWDQIDTVLLDMDGTLLDLHFDNHFWLSLVPGTLSRMHGISAEAATSHVRAAYDKVAGTLEWYCLDYWERELGLDIMALHRTLVDRIQLRQDSMPFLTALADAGKRRILLTNAHPNSLALKLEHTELASGLDEMLSSHQTGHPKESPLFWQAVFARFELNPRRCLFIDDSEAILLAAKHAGVGFQLGISNPDSQQPNKVFHDFPAIHDYRLLLNE	not soluble
MGSDKIHHHHHHMMKMQVVIASGKGGVGKSSITASLLYLLKDEYKLIAVDADAEAPNLGLLLGVTEWEIEREHIGAKIARINPESCIRCGLCQMRCPYECIYVDEEGNYVVNELTCEGCNVCGLVCPVPGTITLEEVRSGIIRKATTKYGFPIISAQLDVGKPESGKLVTEEKEWASKIMKEEGLEHMIVDSAAGIGCQVIASVGGADVAILIAEPTPASLSDVQRVYKVVQHFREPAYLIINKADINPGFTKLREWAESEGIPILGEVPYDSSIPRSMSMLKPFVEAFPDSKASEAIRGIAERIKEEILKG	not soluble
MGSDKIHHHHHHMMNTLAHPPGTDDATLSGMLSHFRLLEPVFDAMPDVVFFVKDAEARYALVNRTLASRCGFKEKTALLGRTAEDVFPRRFGRIYTAQDKAIINVGNQLIDQLELHLYPGRQPGWCLTCKQPLRNAAGKVVGLAGISRDLKADESSHPAYSRLATVVQSIQENYVQPLNLKQLAAMADMSVAQLERYFHKVFHLTPRQVLLKARLDAATALLVSHDKVTDVAALCGYTDHSAFTRQFKATVGVTPTEYRMLLHGTSRS	not soluble

Source: the DeepSol protein solubility set
